Where two headings read alike, the source gives them in different places. Values belong to the binder of their own block, whether it stands above or below them.
Tests used:
[1] = biological target: T1, cynomolgus TIGIT-AviFlag-biotin (cynomolgus monkey, UniProt A0A7N9I9V4 89-209, biotin); test: Block ELISA Cyno PVR-Fc:Bio-TIGIT-AviFlag (blocked ligand cyno PVR-Fc)
T1 construct: also called cyno TIGIT-AviFlag-biotin
Method: (§1) To test for the ability of the clones to block the TIGIT-PVR interaction, a blocking ELISA assay was used. Briefly, recombinant human PVR-Fc fusion protein, cynomolgus monkey PVR-Fc fusion protein, or mouse PVR-Fc fusion protein was coated at 4 μg/ml at 25 μl/well in phosphate-buffered saline (PBS, pH 7.0) onto 384-well Maxisorp microtiter plates (NUNC, Denmark) and incubated overnight at 4° C. The coating solution was then discarded and the plate was blocked using 0.5% bovine serum albumin (BSA) in PBS at 80 μl/well and incubated with gentle agitation for 1 hour. Titration curves of anti-TIGIT and Fab isotype control antibodies were diluted in assay buffer (PBS, 0.5% BSA, 0.05% Tween 20) using 12 serial 2.5-fold dilutions (40000-1.7 ng/mL). […] The plate was then washed 6× with wash buffer and bound human TIGIT-AviFlag-biotin, cyno TIGIT-AviFlag-biotin, or mouse TIGIT-His was detected by adding 25 μl/well of horseradish peroxidase-conjugated streptavidin (1:10000, Amersham, UK) or horseradish peroxidase-conjugated mouse anti-His (1:2500, Qiagen, Germany) diluted in assay buffer. […] Absorbance was read at 450 nm on a […] ASCENT® microtiter plate reader (Thermo Labsystems, Helsinki, Finland). Fit curves were plotted from the resulting optical density values from the ELISA plates and IC50s were calculated using Genedata Screener software (Genedata, Switzerland).

mouse TIGIT-His = biological target: T2, mouse TIGIT-His (mouse, UniProt P86176 29-148, limits assumed); test: Block ELISA Mouse PVR-Fc:TIGIT-His (blocked ligand mouse PVR-Fc)
T2 sequence (looked up): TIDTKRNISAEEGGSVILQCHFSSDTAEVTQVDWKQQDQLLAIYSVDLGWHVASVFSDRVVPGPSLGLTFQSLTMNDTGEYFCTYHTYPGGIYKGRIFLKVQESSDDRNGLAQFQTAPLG
Method: as §1

[2] = biological target: T3, human TIGIT-AviFlag-biotin (human, UniProt Q495A1 22-141, biotin); test: Block ELISA Human PVR-Fc:Bio-TIGIT-AviFlag (blocked ligand human PVR-Fc)
T3 sequence: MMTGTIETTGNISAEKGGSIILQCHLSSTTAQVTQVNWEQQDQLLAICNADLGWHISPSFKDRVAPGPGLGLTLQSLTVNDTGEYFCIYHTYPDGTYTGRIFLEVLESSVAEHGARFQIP
Method: as §1

human TIGIT protein [3] = biological target: T4, human TIGIT protein (human, UniProt Q495A1 22-141, limits assumed); test: SPR, bivalent affinity
T4 construct: Recombinant protein (Genentech) used in ELISA screening and as SPR analyte; also called TIGIT antigen
T4 sequence: T3 sequence

[4] = biological target: T5, cynomolgus monkey (cyno) TIGIT protein (cynomolgus monkey, UniProt A0A7N9I9V4 89-209); test: SPR, bivalent affinity
T5 sequence (A0A7N9I9V4 entry or part of it): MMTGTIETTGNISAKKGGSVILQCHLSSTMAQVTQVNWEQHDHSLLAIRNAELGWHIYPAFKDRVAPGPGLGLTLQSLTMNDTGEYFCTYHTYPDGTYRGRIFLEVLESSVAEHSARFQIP

[5] = biological target: T6, cynomolgus TIGIT on CHO cells (cynomolgus monkey, UniProt A0A7N9I9V4 89-312); test: FACS on CHO cells expressing cyno TIGIT, FITC anti-hIgG detection
T6 construct: whole, on cells; also called CHO-cyTIGIT; cyTIGIT
T6 sequence (A0A7N9I9V4 entry or part of it): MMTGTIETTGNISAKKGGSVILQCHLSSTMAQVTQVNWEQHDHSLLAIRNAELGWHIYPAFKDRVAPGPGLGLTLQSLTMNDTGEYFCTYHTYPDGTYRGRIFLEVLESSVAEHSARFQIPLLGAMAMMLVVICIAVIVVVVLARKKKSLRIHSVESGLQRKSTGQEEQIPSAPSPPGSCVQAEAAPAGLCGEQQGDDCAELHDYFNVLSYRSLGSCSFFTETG
Method: (§2) Additional in vitro binding studies of the OMT- and SD-derived anti-TIGIT antibody clones were conducted. The OMT- and SD-derived anti-TIGIT clones were tested for binding to human and cyno TIGIT expressed on the surface of CHO cells by FACS analysis. CHO cells were transfected with full-length human TIGIT (CHO-hTIGIT) or cynomologous TIGIT (CHO-cyTIGIT). The TIGIT-expressing CHO cells were incubated with each anti-TIGIT antibody at the indicated concentrations and then detected via a FITC-labeled anti-hIgG antibody (see FIG. 1A) using standard methods. The results, shown in Table 6 and FIGS. 1B-1E, corroborate the results from the BIACORE™ analysis, described above.

[6] = biological target: T7, full-length human TIGIT on CHO cells (human, UniProt Q495A1 22-244); test: FACS blocking assay: labelled PVR-Fc (blocked ligand) on CHO cells expressing human TIGIT
T7 construct: also called CHO-hTIGIT; hu TIGIT
T7 sequence: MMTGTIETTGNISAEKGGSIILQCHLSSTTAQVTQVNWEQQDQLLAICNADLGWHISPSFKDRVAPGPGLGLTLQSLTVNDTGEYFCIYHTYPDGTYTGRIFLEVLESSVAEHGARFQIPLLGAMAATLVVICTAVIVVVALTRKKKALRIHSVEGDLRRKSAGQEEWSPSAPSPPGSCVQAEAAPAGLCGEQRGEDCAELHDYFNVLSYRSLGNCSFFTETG
Method: (§3) These studies were further validated in CHO-TIGIT PVR blocking experiments in which TIGIT-expressing CHO cells were incubated with labeled PVR-Fc fusion protein in the presence of anti-TIGIT antibody or an human IgG1 control (FIG. 4A).

[7] = biological target: T7, full-length human TIGIT on CHO cells; test: FACS on CHO cells expressing human TIGIT, FITC anti-hIgG detection
Method: as §2

human TIGIT protein [8] = biological target: T4, human TIGIT protein; test: SPR, captured mAb
[9] = biological target: T5, cynomolgus monkey (cyno) TIGIT protein; test: SPR, captured mAb
[10] = biological target: T6, cynomolgus TIGIT on CHO cells; test: FACS blocking assay: labelled PVR-Fc (blocked ligand) on CHO cells expressing cyno TIGIT
Method: as §3

human TIGIT protein [11] = biological target: T4, human TIGIT protein; test: SPR, monovalent affinity
[12] = biological target: T5, cynomolgus monkey (cyno) TIGIT protein; test: SPR, monovalent affinity
[13] = biological target: T8, human TIGIT on activated human primary T cells (human, UniProt Q495A1 22-244); test: FACS on activated human PBMC, CD4 T cells, FITC anti-hIgG detection
T8 construct: also called Human T cell
T8 sequence: T7 sequence
Method: The OMT- and SD-derived anti-TIGIT clones were also tested for binding to human primary T cells by FACS analysis. Human PBMC were activated for with plate-bound anti-CD3 (5 μg/ml) and soluble anti-CD28 (2 μg/ml) for 2 days as described in Yu et al. Nature Immunology. 10: 48-57, 2009, which is incorporated herein by reference in its entirety. Cells were then washed and incubated with incubated with each anti-TIGIT antibody at the indicated concentrations and then detected via a FITC-labeled anti-hIgG antibody. Cells were also stained with anti-CD4, anti-CD8, and anti-CD25 (BD bioscience). Human CD4+(CD25+CD4+) and human CD8+(CD25+CD8+) T cells were assessed for binding by the anti-TIGIT clones by FACS. All samples were acquired on LSR-II or LSR-Fortessa instruments (BD Biosciences) and analyzed using FlowJo software (Treestar).

human TIGIT protein [14] = biological target: T4, human TIGIT protein; test: SPR, captured mAb; remark: listed apart in the source
Description: (§4) To prevent unwanted pyroglutamate formation for clones 4.1A4, 4.1 D3, and 7.4A3 (also referred to as 1A4, 1 D3, and 4A3, respectively) and to resolve the issue of unpaired cysteine residues for clones 4.1A4 and 7.4A3, the following optimized anti-TIGIT antibody variants were generated: 4.1A4.C96S.Q1E, 4.1A4.C96Y.Q1E, 4.1 D3.Q1E, 7.4A3.C96S.Q1E, and 7.4A3.C96Y.Q1E (also referred to as 1A4.C96S.Q1E, 1A4.C96Y.Q1E, 1 D3.Q1E, 4A3.C96S.Q1E, and 4A3.C96Y.Q1E, respectively). As described below in Table 2, the affinities of these five optimized variants for human and cynomolgus monkey (cyno) TIGIT were then determined by Surface Plasmon Resonance (SRP) (BIACORE™ analysis) and compared to that of their respective parental clones.
(§5) Briefly, a series S CM5 biosensor chip was activated with N-ethyl-N′-(3-dimethylaminopropyl)-carbodiimide hydrochloride (EDC) and N-hydroxysuccinimide (NHS) reagents according to the supplier's (GE Healthcare Biosciences, Piscataway, N.J.) instructions, and a human antibody capture kit was applied to couple goat anti-human Fc IgGs in order to achieve approximately 10,000 response units (RU) on each flow cell, followed by blocking un-reacted groups with 1M ethanolamine.
(§6) (flow rate: 30 μl/min) with no regeneration between injections. The sensorgrams were recorded and evaluated by BIAcore™ T200 Evaluation Software (version 2.0) after subtraction of reference cell signal. Association rates (kₒₙ) and dissociation rates (koff) were calculated using a simple one-to-one Langmuir binding model. The equilibrium dissociation constant (KD) was calculated as the ratio koff/kₒₙ.

[15] = biological target: T5, cynomolgus monkey (cyno) TIGIT protein; test: SPR, captured mAb; remark: listed apart in the source
Description: as §4, §5, §6

B1: 4.1D3.Q1E Fab (Fab, V domains shown)
VH: EVQLQQSGPGLVKPSQTLSLTCAISGDSVSSNSAAWNWIRQSPSRGLEWLGKTYYRFKWYSDYAVSVKGRITINPDTSKNQFSLQLNSVTPEDTAVFYCTRESTTYDLLAGPFDYWGQGTLVTVSS
VL: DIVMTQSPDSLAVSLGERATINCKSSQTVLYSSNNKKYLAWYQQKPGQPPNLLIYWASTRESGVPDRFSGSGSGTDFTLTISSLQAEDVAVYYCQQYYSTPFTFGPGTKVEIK
notes: also called 4.1 D3.Q1E in Fab format
IC50 [1]: 1.5 nM
IC50 (mouse TIGIT-His): > 133 nM
IC50 [2]: 6.9 nM

B4: 4.1A4 (antibody, V domains shown)
VH: QVQLVQSGSELKKPGASVKVSCKASGYTLTNYPMNWVRQAPGRGLEWMGWINTNTGSPAYAQDFTERFVFSLDTSVTTAYLQISSLKAEDTAVYYCARTAITSVYHFDYWGQGTLVTVSS
VL: DIQLTQSPSFLSASVGDRVTITCRASQGISSYLAWYQQKPGKAPRVLIYGATTLQSGVPSRFSGSESGTEFTLTISSLQPEDLATYYCQKLNSHPCSFGQGTKVEIK
notes: OMT rat-derived human antibody; also called 4.1A4.Q1.C96
Kd (human TIGIT protein [3]): 0.31 nM
Kd [4]: 0.035 nM
EC50 (read off the curve) [5]: ~0.8 nM
Kd (human TIGIT protein [14]): 3.57 nM
koff (human TIGIT protein [14]): 0.00122 s⁻¹
kon (human TIGIT protein [14]): 342000 M⁻¹ s⁻¹
Kd [15]: 2.42 nM
koff [15]: 0.000643 s⁻¹
kon [15]: 266000 M⁻¹ s⁻¹
IC50 (read off the curve) [6]: ~0.2 nM
EC50 (read off the curve) [7]: ~1 nM
EC50 (read off the curve) [13]: ~0.5 nM
Kd (human TIGIT protein [11]): 4.9 nM
Kd [12]: 2.6 nM

Results, then the binder that gave them:

Kd (human TIGIT protein [3]): ≤ 0.007 nM
Kd [4]: ≤ 0.013 nM
EC50 (read off the curve) [5]: ~0.4 nM
IC50 (read off the curve) [6]: ~0.4 nM
EC50 (read off the curve) [7]: ~0.3 nM
Kd (human TIGIT protein [8]): 0.03 nM
koff (human TIGIT protein [8]): 1.8e-05 s⁻¹
kon (human TIGIT protein [8]): 522000 M⁻¹ s⁻¹
Kd [9]: 0.25 nM
koff [9]: 9.6e-05 s⁻¹
kon [9]: 381000 M⁻¹ s⁻¹
IC50 (read off the curve) [10]: ~0.3 nM
Kd (human TIGIT protein [11]): 0.034 nM
Kd [12]: 0.25 nM
B2: rat15C8 (antibody, V domains shown)
VH: EVQLQQSGPELQRPGASVKLSCKASGYTFTEHSIYWLKQRPKQSLEIIGRIDPKNGRTYFVDKFKNRATLTTNTSSNTAYMQLSSLTSEDTAIYFCARIDGFYFDFWGQGVMVTASS
VL: NIHLTQSPSLLSASVGDRVTLSCKGSQNVNKYLVWYQQKLGEAPKLLIYSTDNLQSGIPSRFSGSGSGTDYTLTISSLQPEDAATYFCYQYNNGFTFGSGTKLEIK
notes: SD rat-derived; rat V domains as FR/HVR pieces; also called 1.15C8; Chimeric 1.15C8

Kd (human TIGIT protein [3]): ≤ 0.003 nM
Kd [4]: 0.013 nM
EC50 (read off the curve) [5]: ~0.2 nM
EC50 (read off the curve) [7]: ~0.2 nM
Kd (human TIGIT protein [8]): 0.09 nM
koff (human TIGIT protein [8]): 8.4e-05 s⁻¹
kon (human TIGIT protein [8]): 905000 M⁻¹ s⁻¹
Kd [9]: 0.41 nM
koff [9]: 0.000281 s⁻¹
kon [9]: 678000 M⁻¹ s⁻¹
EC50 (read off the curve) [13]: ~0.09 nM
IC50 (read off the curve) [10]: ~0.09 nM
Kd (human TIGIT protein [11]): 0.093 nM
Kd [12]: 0.41 nM
B3: rat10A5 (antibody, V domains shown)
VH: QVSLKESGPGILQPSHTLSLTCSFSGFSLTTYGMGVSWIRQPSEKGLEWLASIWWNGNTYYNPSLRSRLTVSKDTSNDQAFLNVTSVDTTDTATYYCAHTGGAVITWFAYWGQGTLVTVSS
VL: NIVMTQSPKSMSISIGDRVTMNCKASQSVGKNIAWYQQKTGQSPQLLIYYASNRYTGVPDRFTGGGSGTDFTLTINSVQAEDAAFFYCQHIYNSPYPFGTGTKLEIK
notes: SD rat-derived; rat V domains as FR/HVR pieces; also called 1.10A5; Chimeric 1.10A5

From patent US20220064286A1 (Genentech, published 2022)
